The record followed here is paper PMC4479559.

The target of test [1] is Clostridium oremlandii methionine sulfoxide reductase A, Sec-to-Cys form (Clostridium oremlandii (strain OhILAs)). Description: non-reducing SDS-PAGE; time course, 84 μM MsrA with 0.2 mM free methionine sulfoxide; dimer ratios by ImageJ, fitted with Prism 5.
The target is the same in test [2]. Description: non-reducing SDS-PAGE; series of MsrA concentrations, 2 h with 0.2 mM free methionine sulfoxide; dimer ratios by ImageJ, fitted with Prism 5.

For “Clostridium oremlandii methionine sulfoxide reductase A, Sec-to-Cys form (enzyme)”, in test [1], the D1/2 (reaction time to reach half Dmax) was 5.8 min. Also, in test [2], the D1/2 (concentration of MsrA to reach half Dmax) turned out to be 7.6 µM and the Dmax (maximal percent of dimer) came to 98%.
